The results in this text go back to patent US20230340132A1, “ANTI-ADENOSINE RECEPTOR (A2aR) ANTIBODIES” (NA Biotech Corp, priority 2020, published 2023).

“Also recorded” adds a separate entry of the source.

For test [1], the target named is T1, human adenosine receptor A3 (human, UniProt P0DMS8 1-318).
T1 construct: whole, on cells; the tag is not described; also called A3R; human A3R
T1 sequence (looked up): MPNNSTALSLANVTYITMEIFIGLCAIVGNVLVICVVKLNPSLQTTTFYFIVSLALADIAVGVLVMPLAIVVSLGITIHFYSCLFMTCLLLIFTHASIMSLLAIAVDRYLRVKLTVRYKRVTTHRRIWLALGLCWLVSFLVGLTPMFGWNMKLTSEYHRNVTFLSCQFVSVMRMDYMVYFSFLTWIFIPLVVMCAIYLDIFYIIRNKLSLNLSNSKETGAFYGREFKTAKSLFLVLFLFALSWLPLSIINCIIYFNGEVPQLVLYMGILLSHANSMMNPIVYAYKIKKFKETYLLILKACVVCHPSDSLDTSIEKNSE
Briefly: flow cytometry on HEK293T cells stably expressing human A3R. For orientation: In flow cytometry, cells or beads pass a laser one at a time.

In test [2] the test system is cynomolgus A2aR on cynomolgus T cells (PBMC). Briefly: primary cell binding by flow cytometry, cynomolgus PBMC. To be noted: rabbit Fc format, 2 μg/ml. As to the method: Human and cynomolgus PBMCs were purchased from Cytologics LLC (San Diego, CA) and iQ Biosciences (Berkeley, CA), respectively. Primary cell binding was determined using anti-human A2aR clone 3F6-9G5 at rabbit Fc format. In brief, 10^6 human and/or cynomolgus PBMCs in 100 μl FACS buffer were incubated with 3F6-9G5 (2 μg/ml) at 4° C. for 60 minutes. Cynomolgus cross-reactive anti-human CD3 (clone SP34, BD), anti-human CD8 (clone RPA-T8, Biolegend) and Zombie Green fixable Viability dye (Biolegend, Cat. 423111) were used according to manufacturer's instruction to define live immune cell subsets. After 3 washes with FACS buffer, cells were stained with PE-conjugated donkey anti-rabbit Fc detection antibody (1:200, Biolegend, Cat. 406421) for 30 minutes at 4° C. After 3 washes with FACS buffer, cells were analyzed on LSRII (Becton Dickinson). Data was analyzed using FlowJo (Becton Dickinson).
Chain of cynomolgus A2aR on cynomolgus T cells (PBMC) (as listed by the source): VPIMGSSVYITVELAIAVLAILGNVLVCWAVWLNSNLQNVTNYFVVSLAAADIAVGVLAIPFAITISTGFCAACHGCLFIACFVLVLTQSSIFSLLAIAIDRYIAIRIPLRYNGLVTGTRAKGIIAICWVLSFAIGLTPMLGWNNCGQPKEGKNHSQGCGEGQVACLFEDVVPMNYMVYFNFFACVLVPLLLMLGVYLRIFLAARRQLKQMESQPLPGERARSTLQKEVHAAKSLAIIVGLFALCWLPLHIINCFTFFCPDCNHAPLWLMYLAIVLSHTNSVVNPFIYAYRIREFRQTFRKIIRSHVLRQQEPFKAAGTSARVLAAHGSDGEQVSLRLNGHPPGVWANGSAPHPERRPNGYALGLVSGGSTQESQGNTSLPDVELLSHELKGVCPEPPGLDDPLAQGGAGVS

B1: anti-human A2aR monoclonal antibody 1B5-3D7 (antibody, V domains shown)
VH: QVQLQQPGTELVKPGAPVKLSCKTSGFTFTRFWMNWVRQRPGRGLEWIGRIDPYDSETQYNHKFWDRATLTVDKSSSTVYIQLSSLTSEDSAVYYCGRSLYGKGDYWGQGTTLTVSS
VL: DVLMTQSPLSLPVSLGDQASISCRSSQSIVHSNGNTYLEWYLQRPGQSPKLLIYKVSNRFSGVPDRFSGSGSGTYFTLRISRVEAEDLGIYYCFQGSHVPLTFGSGTTLELK
notes: Tested as whole mouse IgG2a / kappa, purified from hybridoma supernatant or made recombinantly in Expi293 cells; also called 1B-3D7
With B1, the binding result in test [1] is “no binding (tested: 2, 10 and 50 nM tested)”.

B2: 3F6-9G5: anti-human A2aR monoclonal antibody from mouse hybridoma clone; HCVR SEQ ID NO: 36, LCVR SEQ ID NO: 42 (antibody, V domains shown)
VH: QVQLQQPGTELVKPGAPVRLSCKASGFAFTSYWMNWVRQRPGRGLEWIGRIDPSDSEAHYHHKFWGKATLTVDKSSSTVYIQLNGLTSEDSAVYYCLRSLYGKGDYWGHGTTLTVSS
VL: DVLMTQTPLSLSVRLGDQASISCRSSQSLVHRNGNTYLEWYLQRPGQSPKLLIYKVSNRFSGVPDRFSGSGSGTDFTLKISRVEAEDLGVYYCYQGSHVPLTFGSGTKLEIK
Consider B2, for which the “binding to cynomolgus T cells (CD4+ and CD8+) of PBMC (FIG. 6)” value in test [2] is “cross-reacted with cynomolgus T cells; also recorded: binds”.
